# Assay results reported in publication PMC9939296 (Acta Pharmaceutica Sinica. B, 2022).
# Legend:
# DgpA/B/C = target: T1, DgpA/B/C (human intestinal bacterium PUE, UniProt A0A3Q9WUX0+A0A3Q9WWX8+A0A3Q9WXL1); experiment: inhibition of puerarin cleavage, HPLC; format: biochemical; conditions: proposed competitive with puerarin at DgpA pocket; substrate puerarin
# T1 sequence (A0A3Q9WWX8 1-367): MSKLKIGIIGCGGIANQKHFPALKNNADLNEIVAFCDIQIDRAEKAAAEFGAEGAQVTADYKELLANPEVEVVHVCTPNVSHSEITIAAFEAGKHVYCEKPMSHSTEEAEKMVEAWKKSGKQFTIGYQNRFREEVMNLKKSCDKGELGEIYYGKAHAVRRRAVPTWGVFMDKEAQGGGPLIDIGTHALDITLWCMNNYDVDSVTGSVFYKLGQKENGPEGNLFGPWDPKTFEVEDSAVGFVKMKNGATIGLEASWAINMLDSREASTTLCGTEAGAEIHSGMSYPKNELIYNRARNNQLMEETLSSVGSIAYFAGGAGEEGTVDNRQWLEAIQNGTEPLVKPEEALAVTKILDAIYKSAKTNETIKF
# T1 sequence (A0A3Q9WXL1 1-324): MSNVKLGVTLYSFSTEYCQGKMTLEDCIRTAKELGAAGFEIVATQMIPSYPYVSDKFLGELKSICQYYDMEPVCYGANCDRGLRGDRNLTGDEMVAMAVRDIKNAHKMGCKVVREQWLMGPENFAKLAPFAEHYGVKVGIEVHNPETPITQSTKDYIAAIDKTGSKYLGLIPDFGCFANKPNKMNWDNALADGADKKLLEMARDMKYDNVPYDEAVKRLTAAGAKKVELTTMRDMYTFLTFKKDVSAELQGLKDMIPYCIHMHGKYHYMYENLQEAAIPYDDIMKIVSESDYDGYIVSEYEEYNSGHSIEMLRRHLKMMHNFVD
# T1 sequence (A0A3Q9WUX0 1-142): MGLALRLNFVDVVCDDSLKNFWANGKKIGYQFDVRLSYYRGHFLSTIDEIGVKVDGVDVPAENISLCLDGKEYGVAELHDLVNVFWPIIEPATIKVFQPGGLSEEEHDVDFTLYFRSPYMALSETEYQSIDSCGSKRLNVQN
# [1] = target: DgpA (human intestinal bacterium PUE); experiment: SEC
# [2] = target: DgpA (human intestinal bacterium PUE); experiment: native gel or EMSA
Molecule,inhibition ratio (DgpA/B/C),stoichiometry N [1],stoichiometry N [2]
OC[C@H]1OC(O)[C@H](O)[C@@H](O)[C@@H]1O (stereo partly drawn) [glucose],cleaving activity of DgpA/B/C was significantly attenuated proportional to glucose concentration,,
DgpA (enzyme),,6,6
